Strand notation (5' to 3'): a small letter for the sugar, then the base; units joined by * are phosphorothioate-linked, units joined directly phosphodiester-linked; [ ] holds rarer units or linkages, { } end groups; capitals alone tell only the bases. m = 2'-O-methyl; r = 2'-OH (RNA)

B1: G000568: TTR sgRNA modified sequence, Human, SEQ ID No. 110; guide sequence of CR003391 (nucleic acid)
guide: mG*mG*mC*rUrGrUrCrGrUrCrArCrCrArArUrCrCrCrArGrUrUrUrUrArGrAmGmCmUmAmGmAmAmAmUmAmGmCrArArGrUrUrArArArArUrArArGrGrCrUrArGrUrCrCrGrUrUrArUrCrAmAmCmUmUmGmAmAmAmAmAmGmUmGmGmCmAmCmCmGmAmGmUmCmGmGmUmGmCmU*mU*mU*mU
B2: G000498: TTR sgRNA modified sequence, Human, SEQ ID No. 105; guide sequence of CR003359 (nucleic acid)
guide: mA*mG*mU*rGrArGrUrCrUrGrGrArGrArGrCrUrGrCrArGrUrUrUrUrArGrAmGmCmUmAmGmAmAmAmUmAmGmCrArArGrUrUrArArArArUrArArGrGrCrUrArGrUrCrCrGrUrUrArUrCrAmAmCmUmUmGmAmAmAmAmAmGmUmGmGmCmAmCmCmGmAmGmUmCmGmGmUmGmCmU*mU*mU*mU
B3: G000500: TTR sgRNA modified sequence, Human, SEQ ID No. 107; guide sequence of CR003337 (nucleic acid)
guide: mC*mC*mA*rGrUrCrCrArGrCrArArGrGrCrArGrArGrGrGrUrUrUrUrArGrAmGmCmUmAmGmAmAmAmUmAmGmCrArArGrUrUrArArArArUrArArGrGrCrUrArGrUrCrCrGrUrUrArUrCrAmAmCmUmUmGmAmAmAmAmAmGmUmGmGmCmAmCmCmGmAmGmUmCmGmGmUmGmCmU*mU*mU*mU
B4: G000571: TTR sgRNA modified sequence, Human, SEQ ID No. 112; guide sequence of CR005301 (nucleic acid)
guide: mG*mU*mC*rArCrArGrArArArCrArCrUrCrArCrCrGrUrGrUrUrUrUrArGrAmGmCmUmAmGmAmAmAmUmAmGmCrArArGrUrUrArArArArUrArArGrGrCrUrArGrUrCrCrGrUrUrArUrCrAmAmCmUmUmGmAmAmAmAmAmGmUmGmGmCmAmCmCmGmAmGmUmCmGmGmUmGmCmU*mU*mU*mU
B5: G000567: TTR sgRNA modified sequence, Human, SEQ ID No. 109; guide sequence of CR003352 (nucleic acid)
guide: mG*mA*mA*rArGrGrCrUrGrCrUrGrArUrGrArCrArCrCrGrUrUrUrUrArGrAmGmCmUmAmGmAmAmAmUmAmGmCrArArGrUrUrArArArArUrArArGrGrCrUrArGrUrCrCrGrUrUrArUrCrAmAmCmUmUmGmAmAmAmAmAmGmUmGmGmCmAmCmCmGmAmGmUmCmGmGmUmGmCmU*mU*mU*mU
B6: G000501: TTR sgRNA modified sequence, Human, SEQ ID No. 108; guide sequence of CR005300 (nucleic acid)
guide: mU*mC*mA*rCrArGrArArArCrArCrUrCrArCrCrGrUrArGrUrUrUrUrArGrAmGmCmUmAmGmAmAmAmUmAmGmCrArArGrUrUrArArArArUrArArGrGrCrUrArGrUrCrCrGrUrUrArUrCrAmAmCmUmUmGmAmAmAmAmAmGmUmGmGmCmAmCmCmGmAmGmUmCmGmGmUmGmCmU*mU*mU*mU
B7: G000572: TTR sgRNA modified sequence, Human, SEQ ID No. 113; guide sequence of CR003385 (nucleic acid)
guide: mC*mC*mC*rCrUrArCrUrCrCrUrArUrUrCrCrArCrCrArGrUrUrUrUrArGrAmGmCmUmAmGmAmAmAmUmAmGmCrArArGrUrUrArArArArUrArArGrGrCrUrArGrUrCrCrGrUrUrArUrCrAmAmCmUmUmGmAmAmAmAmAmGmUmGmGmCmAmCmCmGmAmGmUmCmGmGmUmGmCmU*mU*mU*mU
B8: G000570: TTR sgRNA modified sequence, Human, SEQ ID No. 111; guide sequence of CR003347 (nucleic acid)
guide: mC*mA*mU*rUrGrArUrGrGrCrArGrGrArCrUrGrCrCrUrGrUrUrUrUrArGrAmGmCmUmAmGmAmAmAmUmAmGmCrArArGrUrUrArArArArUrArArGrGrCrUrArGrUrCrCrGrUrUrArUrCrAmAmCmUmUmGmAmAmAmAmAmGmUmGmGmCmAmCmCmGmAmGmUmCmGmGmUmGmCmU*mU*mU*mU

The first series has as its system off-target integration sites. In words: Off-target oligo insertion based assay in primary human hepatocytes (Table 30). It counts as cell-based. To be noted: TTR sgRNAs in PHH, 100 ng Cas9 mRNA, 25 nM sgRNA, 12.5 nM donor oligo. As to the method: Off-target analysis of sgRNAs targeting TTR was performed in primary human hepatocytes (PHH) as described in Example 5, with the following modifications. PHH were plated at a density of 33,000 cells per well on collagen-coated 96-well plates as described in Example 1. Twenty-four hours post plating, cells were washed with media and transfected using Lipofectamine RNAiMAX (ThermoFisher, Cat. 13778150) as described in Example 1. Cells were transfected with a lipoplex containing 100 ng Cas9 mRNA, immediately followed by the addition of another lipoplex containing 25 nM of the sgRNA and 12.5 nM of the donor oligo (0.3 μL/well). Cells were lysed 48 hours post-transfection and gDNA was extracted and analyzed as further described in Example 5. The data is graphically represented in FIG. 20.
Fewer sites were detected in PHH for every guide tested as compared to the HekCas9 cell line, with no unique sites detected in PHH alone.
Consider B1, for which the “# Sites in PHH” value is 11.
As for B2, the “# Sites in PHH” value is on record as 19.
The same measure, in the same setting: the value for B3 was 12.
On the same count and under the same terms, the value for B4 was 1; that for B5 was 0.
Take B6: the “# Sites in PHH” value turned out to be 0.
The same measure, in the same setting: the value for B7 was 2; that for B8 was 1.

In another series the test system is TTR. As to the kind of experiment: TTR editing in primary human hepatocytes transfected with Spy Cas9 mRNA and sgRNAs (Table 13). The class given is cell-based. The following applies: primary human hepatocytes co-transfected with Spy Cas9 mRNA (SEQ ID NO:2) and sgRNAs, 12.5 nM. How it is done: Primary liver hepatocytes. Primary human liver hepatocytes (PHH) and primary cynomolgus liver hepatocytes (PCH) (Gibco) were cultured per the manufacturer's protocol (Invitrogen, protocol 11.28.2012). In brief, the cells were thawed and resuspended in hepatocyte thawing medium with supplements (Gibco, Cat. CM7000) followed by centrifugation at 100 g for 10 minutes for human and 80 g for 4 minutes for cyno. The supernatant was discarded and the pelleted cells resuspended in hepatocyte plating medium plus supplement pack (Invitrogen, Cat. A1217601 and CM3000). Cells were counted and plated on Bio-coat collagen I coated 96-well plates (ThermoFisher, Cat. 877272) at a density of 33,000 cells/well for human or 60,000 cells/well for cyno (or 65,000 cells/well when assaying effects on TTR protein, described further below). Plated cells were allowed to settle and adhere for 6 or 24 hours in a tissue culture incubator at 37° C. and 5% CO2 atmosphere. After incubation cells were checked for monolayer formation and media was replaced with hepatocyte culture medium with serum-free supplement pack (Invitrogen, Cat. A1217601 and CM4000).
Lipofectamine RNAiMax (ThermoFisher, Cat. 13778150) based transfections were conducted as per the manufacturer's protocol. Cells were sequentially transfected with a lipoplex containing Spy Cas9 mRNA (100 ng), Lipofectamine RNAiMax (0.4 […]) and tracer RNA ([…]), Lipofectamine RNAiMax (0.4 μL/well) and OptiMem.
Transfected cells were harvested post-transfection at 24, 48, or 72 hours. The genomic DNA was extracted from each well of a 96-well plate using 50 μL/well BuccalAmp DNA Extraction solution (Epicentre, Cat. QE09050) per manufacturer's protocol. All DNA samples were subjected to PCR and subsequent NGS analyses, as described herein.
To quantitatively determine the efficiency of editing at the target location in the genome, sequencing was utilized to identify the presence of insertions and deletions introduced by gene editing.
Primers were designed around the target site within the gene of interest (e.g. TTR), and the genomic area of interest was amplified.
Additional PCR was performed per the manufacturer's protocols (Illumina) to add chemistry for sequencing. The amplicons were sequenced on an Illumina MiSeq instrument. The reads were aligned to a reference genome (e.g., the human reference genome (hg38), the cynomologus reference genome (mf5), the rat reference genome (rn6), or the mouse reference genome (mm10)) after eliminating those having low quality scores. The resulting files containing the reads were mapped to the reference genome (BAM files), where reads that overlapped the target region of interest were selected and the number of wild type reads versus the number of reads which contain an insertion, substitution, or deletion was calculated.
The editing percentage (e.g., the “editing efficiency” or “percent editing” or “indel frequency”) is defined as the total number of sequence reads with insertions/deletions (“indels”) or substitutions over the total number of sequence reads, including wild type.
Guides in modified sgRNA format targeting human and/or cyno TTR were delivered to primary human hepatocytes and primary cyno hepatocytes as described in Example 1. Percent editing was determined for crRNAs comprising each guide sequence across each cell type and the guide sequences were then rank ordered based on highest % edit. The screening data for the guide sequences in Table 2 in both cell lines are listed below (Table 12 through 15).
For B1, the “Avg % Deletion” value was 0.80%, the “Avg % Edit” value came out at 43.75% and the “Avg % Insert” value turned out to be 43.00%.
With B2, the “Avg % Deletion” value is given as 14.90%, the “Avg % Edit” value was 60.02% and the “Avg % Insert” value was 45.20%.
For B3, the “Avg % Deletion” value is recorded as 3.10%, the “Avg % Edit” value is recorded as 35.50% and the “Avg % Insert” value came to 32.47%.
For the molecule B4, the “Avg % Deletion” value was 6.13%, the “Avg % Edit” value was found to be 20.47% and the “Avg % Insert” value worked out at 14.47%.
In the case of B5, the “Avg % Deletion” value worked out at 10.02%, the “Avg % Edit” value was 27.28% and the “Avg % Insert” value is on record as 17.35%.
For B6, the “Avg % Deletion” value worked out at 6.62%, the “Avg % Edit” value turned out to be 40.32% and the “Avg % Insert” value is on record as 33.82%.
B7: the “Avg % Deletion” value was 13.85%, the “Avg % Edit” value came to 55.42% and the “Avg % Insert” value is on record as 41.62%.
For B8, the “Avg % Deletion” value was determined as 0.35%, the “Avg % Edit” value stood at 68.42% and the “Avg % Insert” value is on record as 68.08%.

The values above are taken from patent US11795460B2, “Compositions and methods for TTR gene editing and treating ATTR amyloidosis” (Intellia Therapeutics, Inc., priority 2017, dated 2023).
